Data from the nanobody polyreactivity screen of Harvey et al. (2022).

Experiment: yeast display, Sf9 membrane polyspecificity reagent, FACS + sequencing; frameworks hold sequencing errors
Method in brief: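 After 36–48 hours of galactose induction, yeast (Saccharomyces cerevisiae BJ5465) displaying a synthetic nanobody library were stained at 4 °C for 1 hour with 10% biotinylated, detergent-solubilized Sf9 membrane reagent. Streptavidin microbeads enriched the stained cells before FACS sorting into low and high (top ~1%) gates on anti-HA and streptavidin fluorescence. Each clone's polyreactivity label reflects its gate of origin.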

Sequence | polyreactivity (PSR sort gate)
QVQLVESGGGLVQAGGSLRLSCAASGLTLVTYAMGWYRQAPGNERELVAAINSGGSTNYADSVKGRFTISRDNAKNTVYLQMNSLKPEDTAVYYCNADRVSPATYDYWGQGTQVTVSS | low polyreactivity
QVQLVESGGGLVQAGGSLRLSCAASGLTLYGYTMGWYRQAPGKERELVATITTGGDSTYYADSVKGRFTISRDNAKNTVYLQMNSLKPEDTAVYYCAAYSYGWDYSYDYWGQGTQVTVSS | low polyreactivity
QVQLVESGGGLVQAGGSLRLSCAASGLTLYKNGMGWYRQAPGKERELVAVISRSGGRTYYADSVKGRFTISRDNAKNTVYLQMNSLKPEDTAVYYCAAAWYSSSRYQGIYRFDYWGQGTQVTVSS | high polyreactivity
QVQLVESGGGLVQAGGSLRLSCAASGLTLYRNAMGWYRQAPGKERELVATINFSGGSKYYADSVKGRFTISRDNAKNTVYLQMNSLKPEDTAVYFCNARGYWHYSPTKFDYWGQGTQVTVSS | low polyreactivity
QVQLVESGGGLVQAGGSLRLSCAASGLTLYTYAMGWYRQAPGKERELVAAISKNGGRTYYADSVKGRFTISRDNANNTVYLQMNSLKPEDTAVYYCAARARVGSVTFDYWGQGTQVTVSS | high polyreactivity
QVQLVESGGGLVQAGGSLRLSCAASGLTLYYYAMGWYRQAPGKERELVAAINRGGSTYYSDSVKGRFTISRDNEKNTVYLLMNSLKPEDTAVYYCAVDYGVRDLTYYYCGQGTQVTVSS | low polyreactivity
QVQLVESGGGLVQAGGSLRLSCAASGLTSHSYAMGWYRQAPGKERELVAAINGDGGSTYYADSVKGRFTISRDNAKNTVYLQMNSLKPEDTAVYYCAAQGNRPRGEYDYWGQGTQVTVSS | high polyreactivity
QVQLVESGGGLVQAGGSLRLSCAASGLTSKFYAMGWYRQAPGKERELVAAISGSGGSTYYADSVKGRFTISRDKAKNTVYLQMNSLKPEDTAVYYCAARYFGLRYYYWGQGTQVTVSS | high polyreactivity
QVQLVESGGGLVQAGGSLRLSCAASGLTVKYYAMGWFRQAPGKERELAAIISFGGGSTYYADSVKGRFTISRDNAKNTVYLQMNSLKPEDTAVYYCNARLLFKYGYWGQGTQVTVSS | high polyreactivity
QVQLVESGGGLVQAGGSLRLSCAASGLTVLQNAMGWYRQAPGKEWELVAAINIGTNTYADSVKGRFTSARDNAKNTVYLQMNSLKPEDTAVYYCATVDTVLVRPVGYDYWGQGTQVTVSS | low polyreactivity
QVQLVESGGGLVQAGGSLRLSCAASGLTYADYAMGWYRQAPGKDRQLVAAISRRGGSTYYADSVKGRFTISRDKAKNTVYLQMNSLKPEDTAVYYCAAYAYDVAFKRYKFDYWGQGTLVTVSS | high polyreactivity
QVQLVESGGGLVQAGGSLRLSCAASGMGWYRQAPGKERELVAAITSGDSTNYADSVKGRFTISRDNAKNTVYLQMNSLKPEDTAVYYCAADPDYLYAYYYWGQGSQVTVSS | low polyreactivity
QVQLVESGGGLVQAGGSLRLSCAASGMGWYRQAPGKERELVAAITSGDSTNYADSVKGRFTISRDNAKNTVYLQMNSLKPEDTAVYYCAADPDYLYAYYYWGQGTQVTVSS | low polyreactivity
QVQLVESGGGLVQAGGSLRLSCAASGMGWYRQAPGKERELVATITWSDGITYADSVKGRFTISRDNAKNTVYLQMNSLKPEDTAVYYCNADWDQTGTVFYSFGMREMDSWGQGTQVTVSS | low polyreactivity
QVQLVESGGGLVQAGGSLRLSCAASGMIFQDNAMGWYSQAPGKERELVAAITTGGITYYADSVKGRFTISRDNAKNTVYLQMNSLKPEDTAVYYCATDPVKSGYQRYYYWGQGTQVTVSS | low polyreactivity
QVQLVESGGGLVQAGGSLRLSCAASGMTFFTYSMGWYRQAPGKERELVAAISGSGGSTYYADSVKGRFTISRDNAKNTVYLQMNSLKPEDTAVYYCAKRSWIVYDYWGQGTQVTVSS | low polyreactivity

Sequence | polyreactivity (PSR sort gate)
QVQLVESGGGLVQAGGSLRLSCAASGMVWYRQAPGKERELVAAITSGDSTNYADSVKGRFTISRDNAKNTVYLQMNCLKPEDTSVYYCAADPDYLYAYFYWGQGTQVSVSS | low polyreactivity
QVQLVESGGGLVQAGGSLRLSCAASGNAMGWYRQAPGKERELVAAITYGGTTTYYADSVKGRFTISRDNAKNTVYLQMNSLKPEDTAVYYCAADYVFVATPLRYDYWGQGTQVTVSS | low polyreactivity
QVQLVESGGGLVQAGGSLRLSCAASGNICITYAMGWYRQAPGKEREFVAAISRRRGRTYYADSVKARFTISRDKAKNTVYLQMNSLKPVDTAVYYCAADPATSVYGGLNYWGQVTQVTVSS | high polyreactivity
QVQLVESGGGLVQAGGSLRLSCAASGNIFANYAMGWYRQAPGKERELVAAIRWSASRTYYADSVKGRFTISRDNAKNTVYLQMNSLIPEDTAVYYCAATIYTFWDYYYDYWGQGTQVTVSS | high polyreactivity
QVQLVESGGGLVQAGGSLRLSCAASGNIFAPNAMGWDRQAPGKERELVAAISRSGGSTHYADSVKGRFTISRDNAKNTVYLQMNSLKPEDTAVYYCAAGWYGRYTSKMGYWGQGTQVTVSS | high polyreactivity
QVQLVESGGGLVQAGGSLRLSCAASGNIFAWYAMGWYRQAPGKERELVADISSRGGSSYYADSVKGRFTISRDTAKNTVYLQMNSLKPEDTAVYYCAAVWYWTQDYDYWGQGTQVTVSS | low polyreactivity
QVQLVESGGGLVQAGGSLRLSCAASGNIFDGNAMGWYRQAPGKERELVAAITSSGDSTYYADSVKGRFTISRDNAKNTVYLLMNSLKPEDTAVYYCAAGYRWGYYYWGQGTQVTVSS | high polyreactivity
QVQLVESGGGLVQAGGSLRLSCAASGNIFDGNSMGWYRQAPGKERELVAAITGRGGGTYYADSVKGRFTISRDNAKNTVYLQMNSLKPEDTAVYYCAAPWVVRRTAYDYWGQGTQVTVSS | high polyreactivity
QVQLVESGGGLVQAGGSLRLSCAASGNIFDIYAMGWYRQAPGKERELVAAISSGGSTYYADSVKGRFTISRDNAKNTVYFQMNSLKPEDTAVYYCAESRVGYYRYEYWGQGTQVTVSS | low polyreactivity
QVQLVESGGGLVQAGGSLRLSCAASGNIFDIYAMGWYRQAPGKERELVAAITSGVRTYYADSVKGLFTISRDNAKNTVYLQMNSVKPEDTAVYYCATPSPHVGLKWEYDYWGQGTQVTVSS | low polyreactivity
QVQLVESGGGLVQAGGSLRLSCAASGNIFDQNAMGWYRQAPAKERELVAAITRSGSTTYYADSVKGRFTISRDNAKNTVYLQMNSLKPEDTAVYYCAAKVYAYRTYKMYYWGEGTQVTVSS | high polyreactivity
QVQLVESGGGLVQAGGSLRLSCAASGNIFDYYAMGWYRQAPGKERELVAAISTGTSTYADSVKGRFTISRDNAKNTVYLQMNSVKPEDTAVYYCASDVGIRPLNYHPYNYWGQGTQVTVSS | low polyreactivity
QVQLVESGGGLVQAGGSLRLSCAASGNIFFSNAMGWYRQAPGKERELLASISQSGGSTYYADSVKGRFTISRDNAKNTVYLQMNSLKPEDTAVYYCAATQVRRGPAWGRDYWGQGTQVTVSS | low polyreactivity
QVQLVESGGGLVQAGGSLRLSCAASGNIFGRYAMGWYRQAPGKERELVAAINWSGGSTNYADSVKGRFTISRDNAKNTVYLQMNSLKPEDTAVYYCAADYYYSLISNQYKYGQRNFDYWGQGTQVTVSS | low polyreactivity
QVQLVESGGGLVQAGGSLRLSCAASGNIFGRYAMGWYRQAPGKERELVAAISWSGGSTFYADSVKGRFTISRDNAKNTVYLQMNSLKPEDTAVYYCAAEYWVYDSYWFDYDYWGQGTQVTVSS | high polyreactivity
QVQLVESGGGLVQAGGSLRLSCAASGNIFGYNAMGWYRQAPGKERELVAAITSDGRTYYADSVKGRFTISRDNAKNTVYLQMNSLKPEDTAVYYCAADSSGYYWFNYWGQGTQVTVSS | low polyreactivity
